# In publication PMC3720618, “Computational and Experimental Insights into the Mechanism of Substrate Recognition and Feedback Inhibition of Protoporphyrinogen Oxidase” (PLoS ONE, 2013):
# Substitutions are numbered along the chain they refer to. In names and notes the source's numbering stands.
# T1: human protoporphyrinogen IX oxidase (hPPO) (Homo sapiens, UniProt P50336)
# T1 construct: gene PPOX
# T1 sequence (P50336 1-477): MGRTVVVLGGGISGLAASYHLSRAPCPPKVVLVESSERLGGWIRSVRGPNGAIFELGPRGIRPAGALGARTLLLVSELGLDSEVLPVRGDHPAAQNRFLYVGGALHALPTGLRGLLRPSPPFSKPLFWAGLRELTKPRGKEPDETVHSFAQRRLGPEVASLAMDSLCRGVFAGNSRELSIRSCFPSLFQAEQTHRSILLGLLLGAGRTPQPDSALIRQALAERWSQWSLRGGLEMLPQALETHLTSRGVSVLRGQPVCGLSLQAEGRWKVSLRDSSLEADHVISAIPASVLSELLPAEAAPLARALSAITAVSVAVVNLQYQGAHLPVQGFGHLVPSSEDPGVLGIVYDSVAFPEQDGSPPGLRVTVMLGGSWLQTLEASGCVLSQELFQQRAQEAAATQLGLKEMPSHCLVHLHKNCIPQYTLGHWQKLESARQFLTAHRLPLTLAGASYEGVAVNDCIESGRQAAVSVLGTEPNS
# B1: human protoporphyrinogen IX oxidase (hPPO) (Homo sapiens; L166N) (protein)
# chain: T1 sequence (P50336 1-477) with L166N
# B2: human protoporphyrinogen IX oxidase (hPPO) (Homo sapiens; G169A) (protein)
# chain: T1 sequence (P50336 1-477) with G169A
# B3: human protoporphyrinogen IX oxidase (hPPO) (Homo sapiens; F331T) (protein)
# chain: T1 sequence (P50336 1-477) with F331T
# B4: human protoporphyrinogen IX oxidase (hPPO) (Homo sapiens; F331A) (protein)
# chain: T1 sequence (P50336 1-477) with F331A
# B5: human protoporphyrinogen IX oxidase (hPPO) (Homo sapiens; L334V) (protein)
# chain: T1 sequence (P50336 1-477) with L334V
# B6: human protoporphyrinogen IX oxidase (hPPO) (Homo sapiens) (protein)
# chain: T1 sequence (P50336 1-477)
# B7: human protoporphyrinogen IX oxidase (hPPO) (Homo sapiens; R168S) (protein)
# chain: T1 sequence (P50336 1-477) with R168S
# B8: human protoporphyrinogen IX oxidase (hPPO) (Homo sapiens; M368K) (protein)
# chain: T1 sequence (P50336 1-477) with M368K
# B9: human protoporphyrinogen IX oxidase (hPPO) (Homo sapiens; V170T) (protein)
# chain: T1 sequence (P50336 1-477) with V170T
# What was measured:
# [1] = target: T1, human protoporphyrinogen IX oxidase (hPPO); test: fluorescence product-formation time courses showing feedback (product) inhibition; type: biochemical
# [2] = substrate: C=Cc1c2[nH]c(c1C)Cc1[nH]c(c(CCC(=O)O)c1C)Cc1[nH]c(c(C)c1CCC(=O)O)Cc1[nH]c(c(C)c1C=C)C2; test: purified protein
# [3] = substrate: C=Cc1c2[nH]c(c1C)Cc1[nH]c(c(CCC(=O)O)c1C)Cc1[nH]c(c(C)c1CCC(=O)O)Cc1[nH]c(c(C)c1C=C)C2; test: continuous fluorometric enzyme kinetics on purified hPPO (Km); type: biochemical, Homo sapiens; conditions: FAD active site next to FAD; model: R97, L166, R168, G169, V170, F331, L334, M368
molecule,measurement,setting,value
C=CC1=C(C)c2cc3[nH]c(cc4nc(cc5[nH]c(cc1n2)c(C)c5CCC(=O)O)C(CCC(=O)O)=C4C)c(C)c3C=C [protoporphyrin IX],fluorescence product-formation time courses showing feedback (product) inhibitio,[1],The product inhibition phenomenon was obvious at low concentrations of PPO
B1,Km,[2]; FAD substrate ring C,5.13 µM
same,kcat,[2]; FAD substrate ring C,0.0303 ± 0.00217 s⁻¹
same,kcat/Km,[2]; FAD substrate ring C,5830 M⁻¹ s⁻¹
B2,Km,[2]; FAD substrate ring C,2.16 µM
same,kcat,[2]; FAD substrate ring C,0.00617 ± 0.000667 s⁻¹
same,kcat/Km,[2]; FAD substrate ring C,2830 M⁻¹ s⁻¹
B3,Km,[2]; FAD substrate ring D,3.02 µM
same,kcat,[2]; FAD substrate ring D,0.151 ± 0.0127 s⁻¹
same,kcat/Km,[2]; FAD substrate ring D,50200 M⁻¹ s⁻¹
B4,Km,[2]; FAD substrate ring D,6.60 µM
same,kcat,[2]; FAD substrate ring D,0.0727 ± 0.0065 s⁻¹
same,kcat/Km,[2]; FAD substrate ring D,11000 M⁻¹ s⁻¹
B5,Km,[2]; FAD substrate ring D,7.08 µM
same,kcat,[2]; FAD substrate ring D,0.853 ± 0.103 s⁻¹
same,kcat/Km,[2]; FAD substrate ring D,120000 M⁻¹ s⁻¹
B6,Km,[3],2.08 µM
same,kcat,[3],0.0495 ± 0.0025 s⁻¹
same,kcat/Km,[3],23800 M⁻¹ s⁻¹
B7,Km,[2]; FAD substrate ring A,11.33 µM
same,kcat,[2]; FAD substrate ring A,0.0553 ± 0.00367 s⁻¹
same,kcat/Km,[2]; FAD substrate ring A,4830 M⁻¹ s⁻¹
B8,Km,[2]; FAD substrate ring A,5.63 µM
same,kcat,[2]; FAD substrate ring A,0.236 ± 0.0183 s⁻¹
same,kcat/Km,[2]; FAD substrate ring A,42000 M⁻¹ s⁻¹
B9,Km,[2]; FAD substrate ring B,2.97 µM
same,kcat,[2]; FAD substrate ring B,0.128 ± 0.011 s⁻¹
same,kcat/Km,[2]; FAD substrate ring B,43200 M⁻¹ s⁻¹
